Several values for one entry are separate records, joined by “and”; a condition that tells them apart may be missing. Equal entries are not always repeated.
How the values were obtained:
[1] = molecular target: human CTLA4 (human) (UniProt P16410); assay: ELISA, coat CTLA4 0.5 ug/ml; antibody 1 ug/ml
[2] = molecular target: human CTLA4 (human) (UniProt P16410); assay: ELISA, coat CTLA4 0.5 ug/ml; antibody 0 (blank)
[3] = molecular target: human CTLA4 (human) (UniProt P16410); assay: ELISA, coat human CTLA4 0.5 ug/ml; antibody 1 ug/ml
[4] = molecular target: human CTLA4 (human) (UniProt P16410); assay: as above; remark: listed apart in the source
[5] = molecular target: murine CTLA4 (murine) (UniProt P09793); assay: ELISA on coated CTLA4, source Mouse (row of 8D2H1L1)
[6] = molecular target: human CTLA4 (human) (UniProt P16410); assay: ELISA, coat human CTLA4 0.5 ug/ml; antibody 0 (blank)
[7] = molecular target: monkey CTLA4-hFc (monkey); assay: ELISA, coat monkey CTLA4-hFc 0.25 ug/ml; antibody 1 ug/ml
[8] = molecular target: human CTLA4 (human) (UniProt P16410); assay: ELISA, coat CTLA4 0.5 ug/ml; antibody 1:81 (start 1 ug/ml)
[9] = molecular target: monkey CTLA4-hFc (monkey); assay: ELISA, coat monkey CTLA4-hFc 0.25 ug/ml; antibody 0 (blank)
[10] = molecular target: CTLA4-mFc; assay: competitive ELISA, competitor B7-2; control run with 8D2H2L2
[11] = molecular target: CTLA4-mFc; assay: competitive ELISA, competitor B7-1; control run with 8D2H2L17
[12] = molecular target: CTLA4-mFc; assay: competitive ELISA, competitor B7-2; control run with 8D2H2L15
[13] = molecular target: human CTLA4 (human) (UniProt P16410); assay: ELISA, coat human CTLA4 0.5 ug/ml; antibody 1:3 (start 1 ug/ml)
[14] = molecular target: human CTLA4 (human) (UniProt P16410); assay: ELISA, coat human CTLA4 0.5 ug/ml; antibody 1:27 (start 1 ug/ml)
[15] = molecular target: human CTLA4 (human) (UniProt P16410); assay: ELISA, coat human CTLA4 0.5 ug/ml; antibody 1:81 (start 1 ug/ml)
[16] = molecular target: human CTLA4 (human) (UniProt P16410); assay: as above; remark: listed apart in the source
[17] = molecular target: human CTLA4 (human) (UniProt P16410); assay: ELISA, coat human CTLA4 0.5 ug/ml; antibody 1:729 (start 1 ug/ml)
[18] = molecular target: monkey CTLA4-hFc (monkey); assay: ELISA, coat monkey CTLA4-hFc 0.25 ug/ml; antibody 1:27 (start 1 ug/ml)
[19] = molecular target: CTLA4-mFc; assay: competitive ELISA, CTLA4-mFc coated, competitor B7/2-His; antibody 3 µg/ml diluted 1:3
[20] = molecular target: CTLA4-mFc; assay: competitive ELISA, CTLA4-mFc coated, competitor B7/2-His; antibody 3 µg/ml diluted 1:9
[21] = molecular target: CTLA4-mFc; assay: competitive ELISA, CTLA4-mFc coated, competitor B7/2-His; antibody 3 µg/ml diluted 1:27
[22] = molecular target: CTLA4-mFc; assay: competitive ELISA, CTLA4-mFc coated, competitor B7/2-His; antibody 3 µg/ml diluted 1:243
[23] = molecular target: CTLA4-mFc; assay: competitive ELISA, CTLA4-mFc coated, competitor B7/2-His; antibody 1.5 µg/ml diluted 1:9
[24] = molecular target: CTLA4-mFc; assay: competitive ELISA, CTLA4-mFc coated, competitor B7/2-His; antibody 1 µg/ml diluted 1:243
[25] = molecular target: CTLA4-mFc; assay: competitive ELISA, B7/1-hFc coated (competitor), CTLA4-mFc added; antibody 0 (no antibody)
[26] = molecular target: CTLA4-mFc; assay: competitive ELISA, CTLA4-mFc coated, competitor B7/2-His; antibody 1.5 µg/ml diluted 1:243
[27] = molecular target: CTLA4-mFc; assay: competitive ELISA, B7/1-hFc coated (competitor), CTLA4-mFc added; antibody 0 (no antibody); remark: listed apart in the source
[28] = molecular target: CTLA4-mFc; assay: competitive ELISA, B7/1-hFc coated (competitor), CTLA4-mFc added; antibody 5 µg/ml diluted 1:3
[29] = molecular target: CTLA4-mFc; assay: competitive ELISA, B7/1-hFc coated (competitor), CTLA4-mFc added; antibody 5 µg/ml diluted 1:81
[30] = molecular target: CTLA4-mFc; assay: as above; remark: listed apart in the source
[31] = molecular target: CTLA4-mFc; assay: competitive ELISA, B7/1-hFc coated (competitor), CTLA4-mFc added; antibody 5 µg/ml diluted 1:243
[32] = molecular target: CTLA4-mFc; assay: competitive ELISA, B7/1-hFc coated (competitor), CTLA4-mFc added; antibody 5 µg/ml diluted 1:729
[33] = molecular target: CTLA4-mFc; assay: competition ELISA, coat B7/1-hFc 0.2 ug/ml (competitor), CTLA4-mFc 0.3 ug/ml detected; antibody 1:3 (start 3 ug/ml)
[34] = molecular target: CTLA4-mFc; assay: competition ELISA, coat B7/1-hFc 0.2 ug/ml (competitor), CTLA4-mFc 0.3 ug/ml detected; antibody 1:9 (start 3 ug/ml)
[35] = molecular target: CTLA4-mFc; assay: competition ELISA, coat B7/1-hFc 0.2 ug/ml (competitor), CTLA4-mFc 0.3 ug/ml detected; antibody 1:27 (start 3 ug/ml)
[36] = molecular target: CTLA4-mFc; assay: competition ELISA, coat B7/1-hFc 0.2 ug/ml (competitor), CTLA4-mFc 0.3 ug/ml detected; antibody 1:243 (start 3 ug/ml)
[37] = molecular target: CTLA4-mFc; assay: competition ELISA, coat B7/1-hFc 0.2 ug/ml (competitor), CTLA4-mFc 0.3 ug/ml detected; antibody 1:729 (start 3 ug/ml)

Chain of control antibody 11.2.1 (VH): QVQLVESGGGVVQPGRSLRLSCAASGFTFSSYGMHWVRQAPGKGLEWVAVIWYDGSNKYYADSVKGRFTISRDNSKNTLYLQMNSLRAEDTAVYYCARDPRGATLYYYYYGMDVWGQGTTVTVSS
Chain of control antibody 11.2.1 (VL): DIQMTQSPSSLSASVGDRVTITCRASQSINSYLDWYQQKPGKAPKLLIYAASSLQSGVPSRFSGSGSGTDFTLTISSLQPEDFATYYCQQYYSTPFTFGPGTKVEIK
Chain of human CTLA4 (human) (P16410 36-161 limits assumed): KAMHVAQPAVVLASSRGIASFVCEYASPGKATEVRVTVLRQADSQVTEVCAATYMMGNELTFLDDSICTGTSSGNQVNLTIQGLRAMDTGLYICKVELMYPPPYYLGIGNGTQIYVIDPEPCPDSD
Chain of CTLA4-mFc (chain, as listed by the source limits assumed): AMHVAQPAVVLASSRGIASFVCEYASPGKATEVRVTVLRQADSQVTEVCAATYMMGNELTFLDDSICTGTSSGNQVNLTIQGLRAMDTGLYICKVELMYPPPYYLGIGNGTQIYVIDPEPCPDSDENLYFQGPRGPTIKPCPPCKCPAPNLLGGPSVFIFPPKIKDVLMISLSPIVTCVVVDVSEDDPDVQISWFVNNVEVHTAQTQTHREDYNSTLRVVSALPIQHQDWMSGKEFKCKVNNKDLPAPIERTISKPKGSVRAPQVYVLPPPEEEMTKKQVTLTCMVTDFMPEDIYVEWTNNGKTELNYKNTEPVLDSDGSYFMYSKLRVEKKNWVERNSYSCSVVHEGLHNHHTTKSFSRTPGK

absorbance at 450 nm [1]: 2.75 and 2.69 | absorbance at 450 nm [2]: 0.05 | absorbance at 450 nm [3]: 3.58 and 3.55 | absorbance at 450 nm [4]: 2.21 and 2.15 | EC50 [5]: 0.023 nM | absorbance at 450 nm [6]: 0.072 and 0.064 | absorbance at 450 nm [7]: 1.72 and 1.63 | absorbance at 450 nm [8]: 1.37 and 1.53 | absorbance at 450 nm [9]: 0.048 and 0.051 | EC50 [10]: 0.172 nM | EC50 [11]: 2.61 nM | EC50 [12]: 0.349 nM | absorbance at 450 nm [13]: 1.82 and 2.05 | absorbance at 450 nm [14]: 2.34 and 2.29 | absorbance at 450 nm [15]: 1.25 and 1.27 | absorbance at 450 nm [16]: 0.499 and 0.426 | absorbance at 450 nm [17]: 0.127 and 0.136 | absorbance at 450 nm [18]: 0.625 and 0.665 | absorbance at 450 nm [19]: 0.387 and 0.402 | absorbance at 450 nm [20]: 0.412 and 0.482 | absorbance at 450 nm [21]: 0.676 and 0.585 | absorbance at 450 nm [22]: 1.24 and 1.21 | absorbance at 450 nm [23]: 0.479 and 0.412 | absorbance at 450 nm [24]: 0.84 and 0.85 | absorbance at 450 nm [25]: 0.683 and 0.735 | absorbance at 450 nm [26]: 0.93 and 0.754 | absorbance at 450 nm [27]: 1.28 and 1.3 | absorbance at 450 nm [28]: 0.09 and 0.097 | absorbance at 450 nm [29]: 0.698 and 0.66 | absorbance at 450 nm [30]: 1.17 and 1.2 | absorbance at 450 nm [31]: 1.3 and 1.31 | absorbance at 450 nm [32]: 1.32 and 1.31 | absorbance at 450 nm [33]: 0.119 and 0.133 | absorbance at 450 nm [34]: 0.381 and 0.485 | absorbance at 450 nm [35]: 0.597 and 0.579 | absorbance at 450 nm [36]: 0.9 and 0.52 | absorbance at 450 nm [37]: 0.993 and 0.841
Substance: control antibody 11.2.1

From patent US20260166139A1
